Results reported in IntAct's records for PubMed 36931259.

B1: 14-3-3 protein sigma (Homo sapiens), P31947 (parent)
chain: MERASLIQKAKLAEQAERYEDMAAFMKGAVEKGEELSCEERNLLSVAYKNVVGGQRAAWRVLSSIEQKSNEEGSEEKGPEVREYREKVETELQGVCDTVLGLLDSHLIKEAGDAESRVFYLKMKGDYYRYLAEVATGDDKKRIIDSARSAYQEAMDISKKEMPPTNPIRLGLALNFSVFHYEIANSPEEAISLAKTTFDEAMADLHTLSEDSYKDSTLIMQLLRDNLTLWTADNAGEEGGEAPQEPQS
partner: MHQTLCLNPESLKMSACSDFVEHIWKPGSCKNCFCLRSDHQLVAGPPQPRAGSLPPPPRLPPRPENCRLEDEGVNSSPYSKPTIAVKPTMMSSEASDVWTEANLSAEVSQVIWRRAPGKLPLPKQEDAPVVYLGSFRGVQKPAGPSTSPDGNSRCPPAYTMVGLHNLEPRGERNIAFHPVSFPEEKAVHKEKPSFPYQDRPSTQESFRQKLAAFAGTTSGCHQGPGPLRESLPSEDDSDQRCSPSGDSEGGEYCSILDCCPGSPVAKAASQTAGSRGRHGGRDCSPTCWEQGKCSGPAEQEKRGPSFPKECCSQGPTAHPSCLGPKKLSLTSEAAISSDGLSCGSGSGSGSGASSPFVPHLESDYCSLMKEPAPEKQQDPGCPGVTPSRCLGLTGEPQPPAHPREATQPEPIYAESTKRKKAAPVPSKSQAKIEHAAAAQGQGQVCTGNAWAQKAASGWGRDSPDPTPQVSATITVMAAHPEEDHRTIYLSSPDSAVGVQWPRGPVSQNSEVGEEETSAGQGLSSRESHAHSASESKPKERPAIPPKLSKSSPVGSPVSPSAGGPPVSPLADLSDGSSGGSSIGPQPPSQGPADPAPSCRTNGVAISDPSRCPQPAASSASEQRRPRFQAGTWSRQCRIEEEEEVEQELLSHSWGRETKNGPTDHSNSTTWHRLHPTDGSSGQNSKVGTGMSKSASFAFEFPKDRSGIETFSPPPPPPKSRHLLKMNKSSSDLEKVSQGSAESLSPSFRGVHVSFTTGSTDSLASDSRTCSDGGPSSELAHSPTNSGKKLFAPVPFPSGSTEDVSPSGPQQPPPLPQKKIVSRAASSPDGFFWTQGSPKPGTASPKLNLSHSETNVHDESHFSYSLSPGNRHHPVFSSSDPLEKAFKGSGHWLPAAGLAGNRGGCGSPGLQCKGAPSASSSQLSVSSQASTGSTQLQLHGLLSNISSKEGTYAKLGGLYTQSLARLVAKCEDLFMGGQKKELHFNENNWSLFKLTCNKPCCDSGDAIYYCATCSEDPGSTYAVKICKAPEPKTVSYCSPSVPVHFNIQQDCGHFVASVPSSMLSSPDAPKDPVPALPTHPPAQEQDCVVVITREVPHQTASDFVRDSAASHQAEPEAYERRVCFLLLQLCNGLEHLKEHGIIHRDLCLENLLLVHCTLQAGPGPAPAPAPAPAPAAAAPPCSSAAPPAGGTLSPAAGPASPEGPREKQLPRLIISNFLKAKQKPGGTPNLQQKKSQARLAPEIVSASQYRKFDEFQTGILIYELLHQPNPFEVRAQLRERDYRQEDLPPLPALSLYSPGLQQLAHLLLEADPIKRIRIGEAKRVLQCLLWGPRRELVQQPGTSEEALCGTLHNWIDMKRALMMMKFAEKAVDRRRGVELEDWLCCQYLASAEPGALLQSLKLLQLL
B2: 14-3-3 protein sigma (Homo sapiens), P31947 (parent)
chain: B1 chain
partner: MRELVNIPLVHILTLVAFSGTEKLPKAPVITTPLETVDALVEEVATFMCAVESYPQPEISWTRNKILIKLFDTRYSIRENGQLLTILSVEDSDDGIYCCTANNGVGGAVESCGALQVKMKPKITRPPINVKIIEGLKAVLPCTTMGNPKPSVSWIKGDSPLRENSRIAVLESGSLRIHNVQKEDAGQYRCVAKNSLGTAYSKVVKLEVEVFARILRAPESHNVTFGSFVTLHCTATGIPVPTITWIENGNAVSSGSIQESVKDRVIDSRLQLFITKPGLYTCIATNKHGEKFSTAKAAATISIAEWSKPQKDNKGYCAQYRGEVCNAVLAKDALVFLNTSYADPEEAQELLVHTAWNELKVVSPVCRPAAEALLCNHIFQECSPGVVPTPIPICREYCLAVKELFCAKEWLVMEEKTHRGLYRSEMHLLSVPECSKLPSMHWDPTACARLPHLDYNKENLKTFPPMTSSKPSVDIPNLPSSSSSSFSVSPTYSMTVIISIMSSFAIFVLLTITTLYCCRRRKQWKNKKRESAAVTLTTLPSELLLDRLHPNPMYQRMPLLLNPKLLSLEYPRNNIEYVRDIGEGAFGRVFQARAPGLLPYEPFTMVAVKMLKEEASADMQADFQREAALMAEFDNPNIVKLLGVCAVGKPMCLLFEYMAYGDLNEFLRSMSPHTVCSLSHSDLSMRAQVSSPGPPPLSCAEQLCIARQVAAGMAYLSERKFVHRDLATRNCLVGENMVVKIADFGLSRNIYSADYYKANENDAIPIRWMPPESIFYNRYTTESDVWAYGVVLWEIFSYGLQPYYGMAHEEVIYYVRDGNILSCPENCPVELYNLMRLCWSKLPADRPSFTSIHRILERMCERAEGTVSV
B3: 14-3-3 protein sigma (Homo sapiens), P31947 (parent)
chain: B1 chain
partner: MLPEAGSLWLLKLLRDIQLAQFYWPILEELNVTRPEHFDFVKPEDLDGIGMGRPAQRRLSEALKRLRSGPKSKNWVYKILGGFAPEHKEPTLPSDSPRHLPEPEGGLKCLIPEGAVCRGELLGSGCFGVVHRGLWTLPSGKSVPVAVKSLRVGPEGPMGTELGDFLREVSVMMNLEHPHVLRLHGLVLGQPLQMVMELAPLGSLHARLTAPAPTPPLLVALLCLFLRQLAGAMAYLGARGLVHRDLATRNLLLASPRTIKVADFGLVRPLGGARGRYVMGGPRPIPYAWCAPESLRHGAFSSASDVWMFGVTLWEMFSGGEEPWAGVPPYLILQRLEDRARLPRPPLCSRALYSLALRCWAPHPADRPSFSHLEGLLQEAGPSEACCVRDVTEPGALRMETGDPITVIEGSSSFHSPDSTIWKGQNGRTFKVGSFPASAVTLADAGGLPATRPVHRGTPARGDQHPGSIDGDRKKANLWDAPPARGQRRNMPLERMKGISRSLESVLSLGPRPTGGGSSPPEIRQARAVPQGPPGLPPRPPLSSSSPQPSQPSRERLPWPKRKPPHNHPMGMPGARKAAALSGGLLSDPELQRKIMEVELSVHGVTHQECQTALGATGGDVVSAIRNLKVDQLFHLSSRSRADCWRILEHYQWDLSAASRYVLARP
B4: 14-3-3 protein sigma (Homo sapiens), P31947 (parent)
chain: B1 chain
partner: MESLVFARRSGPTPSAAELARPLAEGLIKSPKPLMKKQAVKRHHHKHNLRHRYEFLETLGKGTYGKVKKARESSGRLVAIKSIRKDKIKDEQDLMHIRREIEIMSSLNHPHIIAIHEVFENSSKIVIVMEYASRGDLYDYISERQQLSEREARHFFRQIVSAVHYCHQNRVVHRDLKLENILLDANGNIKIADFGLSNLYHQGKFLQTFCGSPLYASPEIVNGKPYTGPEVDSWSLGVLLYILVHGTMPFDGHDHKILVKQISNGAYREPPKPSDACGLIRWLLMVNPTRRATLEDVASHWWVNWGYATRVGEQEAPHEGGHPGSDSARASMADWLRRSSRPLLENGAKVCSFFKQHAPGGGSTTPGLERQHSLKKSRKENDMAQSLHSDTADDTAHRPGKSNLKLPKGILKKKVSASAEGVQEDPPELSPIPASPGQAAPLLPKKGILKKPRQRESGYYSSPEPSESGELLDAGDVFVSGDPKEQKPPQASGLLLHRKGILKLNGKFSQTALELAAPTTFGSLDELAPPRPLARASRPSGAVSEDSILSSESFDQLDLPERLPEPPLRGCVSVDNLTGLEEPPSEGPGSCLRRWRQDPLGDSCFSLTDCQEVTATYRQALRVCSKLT
B5: 14-3-3 protein sigma (Homo sapiens), P31947 (parent)
chain: B1 chain
partner: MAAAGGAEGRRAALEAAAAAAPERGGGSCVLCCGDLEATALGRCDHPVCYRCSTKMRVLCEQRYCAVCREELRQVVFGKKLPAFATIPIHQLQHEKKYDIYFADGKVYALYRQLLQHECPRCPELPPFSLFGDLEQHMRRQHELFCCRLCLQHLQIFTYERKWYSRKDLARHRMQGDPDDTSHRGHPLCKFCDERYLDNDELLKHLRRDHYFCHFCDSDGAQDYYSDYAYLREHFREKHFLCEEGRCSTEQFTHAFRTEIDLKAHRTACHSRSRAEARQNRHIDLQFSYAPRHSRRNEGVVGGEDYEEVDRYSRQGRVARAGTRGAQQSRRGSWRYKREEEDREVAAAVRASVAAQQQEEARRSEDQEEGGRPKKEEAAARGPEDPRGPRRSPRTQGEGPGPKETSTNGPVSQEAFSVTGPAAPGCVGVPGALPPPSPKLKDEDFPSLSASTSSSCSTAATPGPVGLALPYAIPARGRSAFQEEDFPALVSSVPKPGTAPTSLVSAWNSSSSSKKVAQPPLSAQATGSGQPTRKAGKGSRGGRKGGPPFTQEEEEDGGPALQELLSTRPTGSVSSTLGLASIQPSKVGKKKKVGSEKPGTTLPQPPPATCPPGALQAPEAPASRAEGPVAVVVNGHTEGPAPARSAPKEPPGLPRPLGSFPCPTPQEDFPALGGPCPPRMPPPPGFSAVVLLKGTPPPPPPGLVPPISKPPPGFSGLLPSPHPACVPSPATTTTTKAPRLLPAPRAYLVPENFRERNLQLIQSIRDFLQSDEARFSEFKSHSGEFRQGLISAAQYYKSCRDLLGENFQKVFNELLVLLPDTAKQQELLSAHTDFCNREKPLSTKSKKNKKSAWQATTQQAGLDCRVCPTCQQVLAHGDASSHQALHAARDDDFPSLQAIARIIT
B6: 14-3-3 protein sigma (Homo sapiens), P31947 (parent)
chain: B1 chain
partner: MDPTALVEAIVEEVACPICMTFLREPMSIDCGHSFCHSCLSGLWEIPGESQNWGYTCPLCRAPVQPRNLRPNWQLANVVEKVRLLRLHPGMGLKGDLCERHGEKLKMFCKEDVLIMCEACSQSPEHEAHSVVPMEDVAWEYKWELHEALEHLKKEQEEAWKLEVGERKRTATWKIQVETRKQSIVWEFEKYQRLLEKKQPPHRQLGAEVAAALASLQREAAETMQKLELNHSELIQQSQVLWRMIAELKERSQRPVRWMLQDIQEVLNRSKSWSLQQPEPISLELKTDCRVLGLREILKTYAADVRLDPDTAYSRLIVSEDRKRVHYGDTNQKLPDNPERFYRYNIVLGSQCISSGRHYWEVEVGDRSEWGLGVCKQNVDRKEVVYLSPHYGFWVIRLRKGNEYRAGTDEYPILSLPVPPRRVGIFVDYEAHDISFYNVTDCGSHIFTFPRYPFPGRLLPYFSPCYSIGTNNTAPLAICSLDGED
B7: 14-3-3 protein sigma (Homo sapiens), P31947 (parent)
chain: B1 chain
partner: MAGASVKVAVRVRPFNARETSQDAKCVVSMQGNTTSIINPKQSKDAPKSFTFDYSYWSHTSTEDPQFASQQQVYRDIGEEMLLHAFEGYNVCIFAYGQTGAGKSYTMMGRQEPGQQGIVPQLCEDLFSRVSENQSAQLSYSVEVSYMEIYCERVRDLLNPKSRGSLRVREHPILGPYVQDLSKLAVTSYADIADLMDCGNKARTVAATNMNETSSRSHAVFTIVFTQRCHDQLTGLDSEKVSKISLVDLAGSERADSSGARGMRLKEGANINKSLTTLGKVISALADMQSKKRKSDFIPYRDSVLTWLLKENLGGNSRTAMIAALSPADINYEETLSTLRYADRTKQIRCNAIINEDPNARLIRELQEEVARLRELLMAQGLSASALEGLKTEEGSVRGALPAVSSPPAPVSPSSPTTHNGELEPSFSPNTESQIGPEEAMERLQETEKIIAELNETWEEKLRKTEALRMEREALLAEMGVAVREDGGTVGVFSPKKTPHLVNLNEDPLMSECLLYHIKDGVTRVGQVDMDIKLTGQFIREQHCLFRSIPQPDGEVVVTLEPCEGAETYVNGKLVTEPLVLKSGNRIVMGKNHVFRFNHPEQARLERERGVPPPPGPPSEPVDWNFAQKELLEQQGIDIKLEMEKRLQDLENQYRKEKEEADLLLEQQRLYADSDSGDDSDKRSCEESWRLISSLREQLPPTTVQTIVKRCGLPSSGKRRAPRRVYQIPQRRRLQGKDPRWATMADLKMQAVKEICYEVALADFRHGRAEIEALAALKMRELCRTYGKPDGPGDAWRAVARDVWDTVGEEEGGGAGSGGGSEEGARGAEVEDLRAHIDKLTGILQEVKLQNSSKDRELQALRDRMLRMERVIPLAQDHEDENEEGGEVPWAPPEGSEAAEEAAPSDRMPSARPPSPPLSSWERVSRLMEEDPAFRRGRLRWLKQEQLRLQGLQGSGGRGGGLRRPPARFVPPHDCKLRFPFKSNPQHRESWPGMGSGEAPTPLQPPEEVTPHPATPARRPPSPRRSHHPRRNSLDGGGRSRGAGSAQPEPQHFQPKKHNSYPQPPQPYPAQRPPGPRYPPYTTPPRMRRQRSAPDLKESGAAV

Variants of: B1
Conditions: with prag1_human PRAG1, Q86YV5

Variant | effect of a mutation on the interaction
K49E;R56E;V178D | decreasing interaction strength

Variants of: B2
Conditions: with musk_human MUSK

Variant | effect of a mutation on the interaction
K49E;R56E;V178D | decreasing interaction strength

Variants of: B3
Conditions: with tnk1_human TNK1, Q13470

Variant | effect of a mutation on the interaction
K49E;R56E;V178D | decreasing interaction strength

Variants of: B4
Conditions: with nuak2_human NUAK2, Q9H093

Variant | effect of a mutation on the interaction
K49E;R56E;V178D | decreasing interaction strength

Variants of: B5
Conditions: with zn598_human ZNF598, Q86UK7

Variant | effect of a mutation on the interaction
K49E;R56E;V178D | decreasing interaction strength

Variants of: B6
Conditions: with tri68_human TRIM68, Q6AZZ1

Variant | effect of a mutation on the interaction
K49E;R56E;V178D | decreasing interaction strength

Variants of: B7
Conditions: with kif1c_human KIF1C

Variant | effect of a mutation on the interaction
K49E;R56E;V178D | decreasing interaction strength
